In US20260167959A1, “APTAZYME-BASED REGULATABLE GENE EXPRESSION SYSTEMS” (REJUVENATE BIO INC, priority 2022, published 2026):

B1: RA407 (nucleic acid)
DNA: GCGCGTCCTGGATTCGCGGAAACGCGTACATCCAGCTGACGAGTCCCAAATAGGACGGAATACCAGCATCGTCTTGATGCCCTTGGAAGTCCGAAACGCGC
modifications: expressed or natural sequence
B2: RA416 (nucleic acid)
DNA: GCGCGTCCTGGACGGAATACCAGCATCGTCTTGATGCCCTTGGAAGTCCGTTCGCGGAAACGCGTACATCCAGCTGACGAGTCCCAAATAGGACGAAACGCGC
modifications: expressed or natural sequence
B3: RA419 (nucleic acid)
DNA: GCGCGTCCTGGATTCGCGGAAACGCGTACATCCAGCTGACGAGTCCCAAATAGGACGAAAGAATACCAGCATCGTCTTGATGCCCTTGGAAGTCTACGCGC
modifications: expressed or natural sequence
B4: RA413 (nucleic acid)
DNA: GCGCGTCCTGGATTCGCGGAAACGCGTAGAATACCAGCATCGTCTTGATGCCCTTGGAAGTCTACATCCAGCTGACGAGTCCCAAATAGGACGAAACGCGC
modifications: expressed or natural sequence
B5: RA427 (nucleic acid)
DNA: GCGCGTCCTGCCGGAATACCAGCATCGTCTTGATGCCCTTGGAAGTCCGGGATTCGCGGAAACGCGTACATCCAGCTGACGAGTCCCAAATAGGACGAAACGCGC
modifications: expressed or natural sequence
B6: RA422 (nucleic acid)
DNA: GCGCGTCCTGGATTCGCGGAAACGCGTACATCCAGCTGACGAGTCCCAAATAGGACGACGGAATACCAGCATCGTCTTGATGCCCTTGGAAGTCCGAACGCGC
modifications: expressed or natural sequence
B7: RA424 (nucleic acid)
DNA: GCGCGTCCTGGATTCGCGGAAACGCGTACATCCAGCTGCGAGAATACCAGCATCGTCTTGATGCCCTTGGAAGTCTCGACGAGTCCCAAATAGGACGAAACGCGC
modifications: expressed or natural sequence
B8: RA428 (nucleic acid)
DNA: GCGCGTCCTGGATTCGCGGAAACGCGTACATCCAGCTGACGAGTCCGAGAATACCAGCATCGTCTTGATGCCCTTGGAAGTCTCCAAATAGGACGAAACGCGC
modifications: expressed or natural sequence
B9: RA420 (nucleic acid)
DNA: GCGCGTCCTGGATTCGCGGAAACGGAGAATACCAGCATCGTCTTGATGCCCTTGGAAGTCTCCGTACATCCAGCTGACGAGTCCCAAATAGGACGAAACGCGC
modifications: expressed or natural sequence
B10: RA425 (nucleic acid)
DNA: GCGCGTCCTGGATTCGCGGAAACGCGTACAGGAATACCAGCATCGTCTTGATGCCCTTGGAAGTCCTCCAGCTGACGAGTCCCAAATAGGACGAAACGCGC
modifications: expressed or natural sequence
B11: RA040 (nucleic acid)
DNA: GCGCGTCCTGGATTCGCGAGAATACCAGCATCGTCTTGATGCCCTTGGAAGTCTGAAACGCGTACATCCAGCTGACGAGTCCCAAATAGGACGAAACGCGC
modifications: expressed or natural sequence
B12: RA417 (nucleic acid)
DNA: GCGCGTCCTGGATTCGCGGAAACGCGTACATCCAGCTGACGAGTCCCAAATCGGAATACCAGCATCGTCTTGATGCCCTTGGAAGTCCGAGGACGAAACGCGC
modifications: expressed or natural sequence
B13: RA426 (nucleic acid)
DNA: GCGCGTCCTGGATTCGCGGAAACGCGTACATCCAGCTGACGAGTCCCAAATAGGACGCCGGAATACCAGCATCGTCTTGATGCCCTTGGAAGTCCGGAAACGCGC
modifications: expressed or natural sequence
B14: RA409 (nucleic acid)
DNA: GCGCGTCCTGGATTCGCCGAGAATACCAGCATCGTCTTGATGCCCTTGGAAGTCTCGGGAAACGCGTACATCCAGCTGACGAGTCCCAAATAGGACGAAACGCGC
modifications: expressed or natural sequence
B15: RA414 (nucleic acid)
DNA: GCGCGTCCTGGATTCGCGGAAACGCGTACATCCAGCTGACGAGTCCCCCGGAATACCAGCATCGTCTTGATGCCCTTGGAAGTCCGGAAATAGGACGAAACGCGC
modifications: expressed or natural sequence
B16: RA418 (nucleic acid)
DNA: GCGCGTCCTGGATTCGCGGAAACGCGTACATCGAGAATACCAGCATCGTCTTGATGCCCTTGGAAGTCTCGCCAGCTGACGAGTCCCAAATAGGACGAAACGCGC
modifications: expressed or natural sequence
B17: RA042 (nucleic acid)
DNA: GCGCGTCCTGGATTCGCGGAAACGCGTACATCCAAGAATACCAGCATCGTCTTGATGCCCTTGGAAGTCTGCTGACGAGTCCCAAATAGGACGAAACGCGC
modifications: expressed or natural sequence
B18: RA415 (nucleic acid)
DNA: GCGCGTCCTGGATTCGCGGACCGGAATACCAGCATCGTCTTGATGCCCTTGGAAGTCCGGAACGCGTACATCCAGCTGACGAGTCCCAAATAGGACGAAACGCGC
modifications: expressed or natural sequence
B19: RA412 (nucleic acid)
DNA: GCGCGTCCTGGATTCGCGGAGTGATACCAGCATCGTCTTGATGCCCTTGGCAGCACTAAACGCGTACATCCAGCTGACGAGTCCCAAATAGGACGAAACGCGC
modifications: expressed or natural sequence
B20: RA421 (nucleic acid)
DNA: GCGCGTCCTGGATTCGCGGAAAGAGAATACCAGCATCGTCTTGATGCCCTTGGAAGTCTCCGCGTACATCCAGCTGACGAGTCCCAAATAGGACGAAACGCGC
modifications: expressed or natural sequence
B21: RA429 (nucleic acid)
DNA: GCGCGTCCTGGATTCGCGGGGAATACCAGCATCGTCTTGATGCCCTTGGAAGTCCAAACGCGTACATCCAGCTGACGAGTCCCAAATAGGACGAAACGCGC
modifications: expressed or natural sequence
B22: RA408 (nucleic acid)
DNA: GCGCGTCCTGGATTCGCGGAAACGCGGGAATACCAGCATCGTCTTGATGCCCTTGGAAGTCCTACATCCAGCTGACGAGTCCCAAATAGGACGAAACGCGC
modifications: expressed or natural sequence
B23: RA411 (nucleic acid)
DNA: GCGCGTCCTGGATTCGCGGAAACGCGTACATCCAGCTGACGAGTCCCAAATAGCGAGAATACCAGCATCGTCTTGATGCCCTTGGAAGTCTCGGACGAAACGCGC
modifications: expressed or natural sequence
B24: RA423 (nucleic acid)
DNA: GCGCGTCCTGGATTCGCGGAAACGCGTACATCCAGCTGACGAGCCGGAATACCAGCATCGTCTTGATGCCCTTGGAAGTCCGGTCCCAAATAGGACGAAACGCGC
modifications: expressed or natural sequence
B25: RA041 (nucleic acid)
DNA: GCGCGTCCTGGATTCGCGGAAACGCGAGTGATACCAGCATCGTCTTGATGCCCTTGGCAGCACTTACATCCAGCTGACGAGTCCCAAATAGGACGAAACGCGC
modifications: expressed or natural sequence
B26: RA406 (nucleic acid)
DNA: GCGCGTCCTGGATTCGCGGAAACGCGTACATCCAGCTGACGAGTCCCCGGAATACCAGCATCGTCTTGATGCCCTTGGAAGTCCGAAATAGGACGAAACGCGC
modifications: expressed or natural sequence
B27: RA410 (nucleic acid)
DNA: GCGCGTCCTGGATTCGCGGAAACGCGTACATCCAGCTGACGAGTCCCAGTGATACCAGCATCGTCTTGATGCCCTTGGCAGCACTAAATAGGACGAAACGCGC
modifications: expressed or natural sequence

Test system: Renilla luciferase RNA
Assay: Barcoded aptazyme variant library screen: un-cleaved Renilla luciferase RNA by barcode read counts, HEK293-T cells
Assay type: cell-based
Conditions: triplicate
Summary of the method: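 Aptazyme variants (seven theophylline aptamers inserted after each T3H48 ribozyme nucleotide, 9-nt barcoded) cloned into the 3′ UTR of Renilla luciferase in psiCHECK-2; cells cultured ± theophylline, in triplicate. RNA and DNA barcodes amplified and sequenced; normalized read counts gave un-cleaved RNA fraction and ON/OFF fold-change.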

[1] = un-cleaved Renilla luciferase RNA by barcode read counts, with 1 mM theophylline (ON) over without theophylline (OFF), HEK293-T cells
[2] = un-cleaved Renilla luciferase RNA, HEK293-T cells cultured with 1 mM theophylline (ON) over without theophylline (OFF), barcode read counts

Row | Molecule | Fold change in RNA expression between the ON state and the OFF state [1] | Fold change in RNA expression between the ON state and the OFF state [2] [fold]
1 | B1 | 0.7 | 
2 | B2 | 0.7 | 
3 | B3 | 0.7 | 
4 | B4 | 0.7 | 
5 | B5 | 0.6 | 
6 | B6 | 0.6 | 
7 | B7 | 0.6 | 
8 | B8 | 0.6 | 
9 | B9 | 0.6 | 
10 | B10 | 0.6 | 
11 | B11 |  | 2.1
12 | B12 | 0.7 | 
13 | B13 | 0.6 | 
14 | B14 | 0.7 | 
15 | B15 | 0.7 | 
16 | B16 | 0.7 | 
17 | B17 |  | 2.1
18 | B18 | 0.7 | 
19 | B19 | 0.7 | 
20 | B20 | 0.6 | 
21 | B21 | 0.6 | 
22 | B22 | 0.7 | 
23 | B23 | 0.7 | 
24 | B24 | 0.6 | 
25 | B25 |  | 2.1
26 | B26 | 0.7 | 
27 | B27 | 0.7 | 
